# Source: paper doi:10.1101/2025.04.03.647111
# Columns and labels:
# [1] = target: HtpG from Synechococcus elongatus PCC 7942 (Synechococcus elongatus PCC 7942); experiment: SEC
# [2] = target: HtpG from Synechococcus elongatus PCC 7942 (Synechococcus elongatus PCC 7942); experiment: AUC
substance,measurement,setting,value
HtpG from Synechococcus elongatus PCC 7942 (natural protein),stoichiometry N,[1],2
same,stoichiometry N,[2],2
